The values below come from paper PMC10353892.

This test deals with barrier-to-autointegration factor (BAF) (UniProt Q9VLU0). Description: GFP affinity purification, mass spectrometry. The conditions noted are these: reference: GFP-Ote wild type; sites S50,S54.

“otefin (Ote; emerin) (from UniProt P20240) GFP-OteAA (S50A S54A)”: the “binding against the reference” value is on record as “stronger”.
